According to US20110159009A1:

Biological target: mouse VEGF-A (mouse) (UniProt Q00731)
Experiment: cell-based or functional assay

Chain of mouse VEGF-A (mouse) (Q00731 other isoform, or with tags, fused parts or gaps limits assumed): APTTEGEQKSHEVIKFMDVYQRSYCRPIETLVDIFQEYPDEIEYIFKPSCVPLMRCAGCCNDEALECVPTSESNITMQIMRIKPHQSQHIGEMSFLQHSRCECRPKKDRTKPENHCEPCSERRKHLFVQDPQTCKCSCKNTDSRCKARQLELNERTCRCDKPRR

## Bevacizumab (BV) (antibody)
  BRME proliferation (Alamar blue): > 1500 nM
